Substrate: NC(=O)c1ccc[n+]([C@@H]2O[C@H](COP(=O)(O)OP(=O)(O)OC[C@H]3O[C@@H](n4cnc5c(N)ncnc54)[C@H](OP(=O)(O)O)[C@@H]3O)[C@@H](O)[C@H]2O)c1
Test: purified protein, by the assay type

B1: thermostable isocitrate dehydrogenase (iCDH) purified from Sulfolobus acidocaldarius DSM 639, FERM BP-5567 (Sulfolobus acidocaldarius DSM 639) (protein)
chain: MVMLYKEPQDGEPIKFEKGKWVVPNKPIILYIEGDGIGPEITNSAIRVVNKAVEKAYKSSREIKWLEVYAGEKANKITGDRFPKETQDMLLKYRVVLKGPLETPIGKGWKSINVAIRLMLDLYANIRPVKYIEGLESPLKHPEKVDMIIFRENTDDLYRGIEFPYDSEEAKKIRKFLREELKVDIEDDTGIGLKVMSKFKTQRITRLALNYALQNSRKKVTVMHKGNVMKYTEGSFREWAYEVALNEYRDKIVTEEEINRGVNSEGKVILNDRIADNMLQQIIIRPDEYDIILAPNVNGDYISDAAGALIGNIGMLGGANIGDTGGMFEAIHGTAPKYAGKNVANPTGIIKSCELMLYFMGWSEAARLIEKAINESIKQKKVTQDIARYLGITPLGTKEYTDTLVQIMDSF
other: pH 8.6, 37° C., pH 8.6
  Km: 66 µM
other: pH 9.5, 37° C., pH 9.5
  Km: 42 µM
other: pH 10.0, 37° C., pH 10.0
  Km: 48 µM
